Assay results as given in US20210261667A1 (SHANGHAI NOVAMAB BIOPHARMACEUTICALS, published 2021).

How the values were obtained:
Test in all cases: ELISA on coated antigen, A405 nm
[1] = biological target: T1, PD-L1 (mouse) (mouse, UniProt Q9EP73 19-238, limits assumed)
T1 construct: also called mouse PD-L1; murine PD-L1

[2] = biological target: T2, human PD-L2 (human, UniProt Q9BQ51 20-220, limits assumed)
T2 sequence (looked up): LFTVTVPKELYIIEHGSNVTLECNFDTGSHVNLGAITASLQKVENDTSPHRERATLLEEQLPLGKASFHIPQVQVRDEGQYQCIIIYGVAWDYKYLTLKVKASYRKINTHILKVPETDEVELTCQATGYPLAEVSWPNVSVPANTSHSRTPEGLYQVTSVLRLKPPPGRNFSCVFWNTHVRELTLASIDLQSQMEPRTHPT

[3] = biological target: T3, human B7H3 (human, UniProt Q5ZPR3-2 29-245, limits assumed)
T3 sequence (looked up): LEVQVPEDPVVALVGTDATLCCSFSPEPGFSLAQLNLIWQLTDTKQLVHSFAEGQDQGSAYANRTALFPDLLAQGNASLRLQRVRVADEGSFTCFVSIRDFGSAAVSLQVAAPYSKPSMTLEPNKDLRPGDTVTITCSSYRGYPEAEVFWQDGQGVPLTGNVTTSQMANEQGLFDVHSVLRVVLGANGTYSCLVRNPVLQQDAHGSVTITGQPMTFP

[4] = biological target: T4, B7H4 (human, UniProt Q7Z7D3 29-258, limits assumed)
T4 sequence (looked up): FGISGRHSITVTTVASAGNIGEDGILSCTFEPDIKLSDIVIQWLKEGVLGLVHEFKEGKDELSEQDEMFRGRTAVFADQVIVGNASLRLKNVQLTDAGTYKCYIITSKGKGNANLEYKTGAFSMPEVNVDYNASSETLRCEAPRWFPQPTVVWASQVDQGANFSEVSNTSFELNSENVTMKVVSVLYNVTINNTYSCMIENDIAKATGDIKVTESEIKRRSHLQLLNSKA

Measured: binding result

T1 sequence (Q9EP73 19-238 limits assumed): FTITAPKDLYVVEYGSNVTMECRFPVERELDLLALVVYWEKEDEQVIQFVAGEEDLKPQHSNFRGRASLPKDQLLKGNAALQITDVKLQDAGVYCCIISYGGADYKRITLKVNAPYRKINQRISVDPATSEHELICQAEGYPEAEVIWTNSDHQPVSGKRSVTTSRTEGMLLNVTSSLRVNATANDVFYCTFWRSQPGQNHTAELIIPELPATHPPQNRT

B1: bivalent anti-PD-L1 single-domain antibody before humanization (Fc fusion)
chain: QVQLQESGGGSVQAGGSLRLSCTASGYNLSPSCMGWFRQAPGKEREGVAFTDADGSTRYADSVKARFTISRDNAENTLYLQMNSLKPEDTAMYYCAADFFSYCSVVFRASARDKYRGQGTQVTVSS
notes: also called bivalent PD-L1 single-domain antibody before humanization; bivalent single-domain antibody before humanization; not shown: IgG1 Fc of vector pFUSE-IgG1
no binding: all assays above
